Test: soluble on expression in E. coli; label from the status in PepcDB or PDB records

Row | Sequence | soluble on expression in E. coli
1 | MPTVSVKWQKKVLDGIEIDVSLPPYVFKAQLYDLTGVPPERQKIMVKGGLLKDDGDWAAIGVKDGQKLMMMGTADEIVKAPEKAIVFAEDLPEEALATNLGYSAGLVNLGNTCYMNSTVQCLKSVPELKSALSNYSLAARSNDVDQTSHMLTVATRELFGELDRSVLRKKYPQFSQLQNGMHMQQDAEECWTQLLYTLSQSLKAPTSSEGADAVKALFGVNLQSRIKLGVLDNVTDSTVISKCTLHCQESGEESSETESVYSLKCHISHEVNHLHEGLKHGLKGELEKTSPALGRTALYVKESLIDSLPRYLTVQFVRFFWKRESNQKAKILRKVDYPLVLDIFDLCSEDLRKKLEAPRQKLREEEGKKLGLQTSAKSGSKDSDVKMTDAEASANGSGESSTVNPQEGTSSEKETHMTGIYDLVAVLTHKGRSADSGHYVAWVKQESGKWIQYDDDNPSMQREEDITKLSGGGDWHMAYITMYKARFVSM | soluble
2 | MPTYKLTYFNSRFYAEPARILFHLAGVPFEDIRIIHGDGTWEQIKDKTPFGQVPVLNINGFEIPQSTAIIRYLATKFGYAGKTPEEQAWADAICDQVRDFMAVPFKDIVVAKRVGKTEEEVSQLINEGFVPGRDAYFKIITRILEKNKSGFLVGDGITFADIVVVENLTTLQKNQLFEASKYPELAALREKVYAIPAIKKWVEARPDTQY | not soluble
3 | MPVRASIEPLTWENAFFGVNSAIVRITSEAPLLTPDALAPWSRVQAKIAASNTGELDALQQLGFSLVEGEVDLALPVNNVSDSGAVVAQETDIPALRQLASAAFAQSRFRAPWYAPDASGRFYAQWIENAVRGTFDHQCLILRAASGDIRGYVSLRELNATDARIGLLAGRGAGAELMQTALNWAYARGKTTLRVATQMGNTAALKRYIQSGANVESTAYWLYR | soluble
4 | MPVSGYLRIKGKRVGVEIFPFQAYHSQIKEVRQQVGNMAILPLRTQVRGPAPSANIESDIIDESLYYFKANVFFRTYEIKSDVDRVLIYVTLYITECLKKLNRSTSKAQGQQDMYSLAISKFDIPGDAGFPLNAVYAKPQTAQDADLMRQYLLQLRHETGNRVLEKVFNTEDGKPNKWWTCFAKKKFMEKSLAGPGQLEHHHHHH | not soluble
5 | MPVSNEIWQLLSRLAEDIRPIGVNISAGEPNRLWTEAKWRALLERFPGERFVVLSGPDDLDAKRRLEEQCPNAVASPPTRNLYEASCIVAKLRLLVTPDTSMVHVASATGTPVAGLYREAPQDISRFGPYAIPYEIVISPTGEVSGIKPESVADAVRRLMARAIGREALEHHHHHH | not soluble
6 | MPVTRPAKINTYTRIIDASLALFNEEGERNISTNHIAAHLGISPGNLYYHFRNKDEIIVQLFKRYSEALLAYLNEAVLPSDVEDSINYMAGIYDVMWEYRFLFSDVNTLLARSAELLGEHNTFTQAKVSPLLVNLLTQLNGLNIIQADQTAMNDLAVNMWMVTKYWFDFDSSLRGRTKLTEDSKARGIRRTLSLLRPYLLPEHRKKYDRKIGNGNP | soluble
7 | MPWRTALKVALAAGEAVAKALTRAVRDEIKQTQQAAARHAASTGQSASETRENANSNAKLGISLEESLQILNVKTPLNREEVEKHYEHLFNINDKSKGGTLYLQSKVFRAKERIDEEFGRIELKEEKKKEENAKTE | not soluble
8 | MPYDFYTDGSALGNGQQGSRGGYGVHVPSDTSKNVSGSYPHGPQTNNRYELEAIKHATQMARDVPDSHVRIHTDSKNAKDSVTKWNDNWKSNGYKTSSGQDVKNQDLIRDIDRNVQALKHSGKTVEFEHVRGHSNRMYI | not soluble
9 | MPYVERSNIVGLFGGSFNPPHEGHLLVAKTAIRRLRLNQLWWMVTPGNPLKDCTHLPPLEKRMRLSLELIDDPKIRVTGFEQAIGSKVSVETISHILAHYRRVHFVWIMGADSLATIHHWYRWHDIISMLPIAIIDRPLVHMSALSSSMAHIYRSFRLDERESIRLPFMKPPAWIYLHGALSFQSSTNLRLKENAFF | not soluble
10 | MQALKTKSNIGEMFNIQEKENGEIAISGRELHQALEVSTRYDKWFERMTEYGFENGIDFISQVEKVHGQKRARTYEQVNHILTLDTAKEIAMIQRSEPGKRARQYFIQVEKAWNSPEMIMQRALKIANNTINQLETKIERDKPKIVFADAVATTKTSILVGELAKIIKQNGINIGQRRLFEWLRQNGFLIKRKGVDYNMPTQYSMERELFEIKETSITHSDGHTSISKTPKVTGKGQQYFVNKFLGEKQTS | not soluble
11 | MQAQTVVHPSIKTKTTFAIVVDQKSYDEAKSEIDAYRTSIEKEGLGTYLLIDDWKRPEPIREQLVKLHENEKTPLEGCVFIGDIPIPMIRDAHHLSSAFKRSPKANWQKSSVPSDRYYDDFGLKFDYIKQDSLIPDYHYMTLRADSKQYISPDIYSARIRPLHLEGENRYQMLRDYLKKAVAEKAKQNAFDQLTMARGHGYNSEDPLAWSGEQIALREQLPQIFKSGNTVKFYDFNMRYPMKPLYLNEIQREGLDVMLFHHHGGPTMQYINGYENGSGINLSIENAKIFLRSKVPSYAKKHGREAAIKEYAKQYGVPESWCAEAFDEEKIKSDSIVNRNMDIYTEDIRLLTPNARFILFDACFNGSFHLDDNIVGSYIFNKGKTIATMGCTVNTIQDKWPDEFLGLLAAGMRIGQFTRFTCFLENHLIGDPTFHFTNNAGLDMDINQALVAQEGNVTFWKKQLNSPMADMQAMALRQLSMANYSGLVELLKKSYHESNYFVVRLEALRLLALNYPTEVADVLQTAMNDSYELIRRYAVEYVEKNCNPELLPAWIESYLLRGHENRHRFRIFSAINTFDHDMALNELKKQAADWSFYDSSYVNELLEYLPRQKKGLERDFALIDSPESTTKQIQSEISRFRNKPIAKAIEPLLNIIKNESQEEELRILAAETLGWYNLYYNKADIIKELNTFRTSNQKLMNEVTKTINRLKSQNR | not soluble
12 | MQCSRALALRLILIAPNGTSVKTLLRPRLDESWEQFVRRRLATPIRRQRIACDRTQKEVADIVGVSHHSIQRWELAYVRSRPIAHIVWAQAHDFLLGLELIHALGRTPRRVSRAHHVHSGR | not soluble
13 | MQDGMYQRFLRQHVHPEETGGSDRYCNLMMQRRKMTLYHCKRFNTFIHEDIWNIRSICSTTNIQCKNGKMNCHEGVVKVTDCRDTGSSRAPNCRYRAIASTRRVVIACEGNPQVPVHFDG | soluble
14 | MQDLICYKKMPQWNSQTLPAAFQEKHNTQEGTWAKLTVLKGEMTFSMLTEDGDTLETFHFSEQNQPPFVEPQAWHRIVSFSDDLECQLSFFCSAEDFYHKKYGLTQTHSEVINAVQHIKPGKTLDLGCGGGRNSLYLNLRGFDVTACDKHEQSIDSLNNIIQSEALENIRAGVYNINLAEIKEQYDFILSTVVLMFLERDRIPHIISNMQGSTVDGGYNLIIAAMSTEDCPCPMPFSFTFKEDELKNYYADWEILKYNEDMGELHKTDAQGNRIKLRFATLLARKPLEHHHHHH | soluble
15 | MQDYMQHLPHMQEIKSEILNKVLTQVQSYDESQFSAKDVKNALNQTHLSIEHLKALLSSAAEDFIEELAFKSAKVKQKYFGNSISLFTPLYLSNYCNSKCVYCGFQKGNKIARAKLNEAEIHEEMQAIAKSGLEEILMLTGEGREFASVEYIANACKIAREYFKVVGVEIYPMNEDEYKILHEKGCDYVTVFQETYNPLKYSKIHLAGEKRIFPYRFNAQERALKAGMRGVAFAALLGIDDFRKDALATALHAHFLQQAYSHAEISISVPRLRPIINNAKIHPKDVSEKRLLQVLCAYRLFLPFAGITISSRERIGFRDEVIKLGATKMSAGVSVGIGEHKGEKKGDEQFEISDDRSVDEILAMLKRSNLQAVMSDSIYVG | not soluble
16 | MQELINEYRGALQEVNEVKANLQTKIDAKKRPPQAAGQKRTIQEVPEKAIMSKLNSIIRSLEYSIEWMELGHEPAPRRAIHRRSGLQREVCVTDIETMRQWFVYEHGIAYDFEDNEPKISEWDKIRMEDAMSTMSTQEKKVFLLKHEKNLSYSQISDEMEISVRSVRSYLHRGEEKIQNQIDGSLFCMAI | not soluble
